Test: soluble on expression in E. coli; label from the status in PepcDB or PDB records

| Sequence | soluble on expression in E. coli |
| --- | --- |
| GHHHHHHAIAENLYFQSMEYGHHARPDSKRPLDEGSPAAAGLTSKKANEALTRNRELTTVLVKNLPKSYNQNKVYKYFKHCGPIIHVDVADSLKKNFRFARIEFARYDGALAAITKTHKVVGQNEIIVSHLTECTLWMTNFPPSYTQRNIRDLLQDINVVALSIRLPSLRFNTSRRFAYIDVTSKEDARYCVEKLNGLKIEGYTLVTKVSNPLEKSKRTDSATLEGREIMIRNLSTELLDENLLRESFEGFGSIEKINIPAGQKEHSFNNCCAFMVFENKDSAERALQMNRSLLGNREISVSLADKKP | soluble |
| MKRIGLTGNIGCGKSTVAQMFRELGAYVLDADKLIHSFYRKGHPVYEEVVKTFGKGILDEEGNIDRKKLADIVFKDEEKLRKLEEITHRALYKEIEKITKNLSEDTLFILEASLLVEKGTYKNYDKLIVVYAPYEVCKERAIKRGMSEEDFERRWKKQMPIEEKVKYADYVIDNSGSIEETYKQVKKVYEELTRDPLEHHHHHH | soluble |
| MSLSNTSASFGFKDVDASLKAGLVRGVFDRVAKNYDIMNDLMSGGVHRLWKDAVAARLNPQPGEVIIDCAGGTGDMARRFAKMARKAQERRGGPDATINIVDYNAEMIMAGIERGGEPEITWTVGDAQRLPLPDAYADAYVISFGIRNVTDINAALREARRVLKPGGRFLCLEFSRPVTEPLAKAYDAYSFKVIPQVGEWVAKDRDAYQYLVESIRRFPDQRTFAGMIEAAGFKRVTFTNFTGGVAALHQGWAIEGHHHHHH | not soluble |
| SAADLGQIPDVDIDSDGVFKYVLIRVHLAEPSGDPAKECKEIVRGYKWAEYHADIYDKVSGELQRNGYDCECLGGGRISHQSQDRKIHVYGYSMGYGRAQHSVSTEKIKAKYPDYEVTWADDGY | soluble |
| GSFTGQGDFHLLDHRGRARCKADFRGQWVLMYFGFTHCPDICPDELEKLVQVVRQLEAEPGLPPVQPVFITVDPERDDVEAMARYVQDFHPRLLGLTGSTKQVAQASHSYRVYYNAGPKDEDQDYIVDHSIAIYLLNPDGLFTDYYGRSRSAEQISDSVRRHMAAFRSVLS | soluble |
| MIQAVLFDLDGTLADTALDLGGALNTLLARHGLPAKSMDEIRTQASHGAAGLIKLGAGITPDHPDYARWRTEYLDEYDSRYAQDTTLF | not soluble |
| MGSDKIHHHHHHMSQSAITVDQVTVTYRNGHTALRDATFQVPGGSIAALVGVNGSGKSTLFKALMGFVHLAQGDITILQQSVNKALKKNLIAYVPQSEEVDWSFPVLVEDVVMMGRYGHMGWLRRPTAHDHACVDAALARVDMQEYRHRQIGELSGGQKKRVFLARAIAQDGQVILLDEPFTGVDVKTEARIIDLLRELRDEGRTMLVSTHNLGSVTEFCDYTVMIKGTVLASGPTETTFTAANLEQAFSGVLRHIALSGGEEHIITDDERPFISRRVASGGKSS | not soluble |
| MQMQPKVGQFRYYPSVGSLNTYLTNMLEKIRVELPDIQRISFALYDEKKDSIKTCADSSPVSHDFVHYELPLANLPSLQQSKESGALRIIHDLANQAKSHTPHNRWLLEQQYCSSLVKPVFDQHTFVGFLFFNASMSHYFSASVVERLETYLSLIQQSICGEYALIHQLVDHVHQIETQSPEHWLHIKQHKERISRYARIIALDVADQYALDDELIENISQFATCHDLGKLALPADLLQKRASLANHEKEQVHNHIEYGIDLLNEVIAKLGTPHHPCLAVLREIMAYHHEFLDGSGYPFGLVSDQIPIPARIIAVANIFDALTAHRPYKQAQSIPHALLELEKMVSDGKLDRHCVNALRENQEELKEIVARFPEQDPKDQGITH | not soluble |
| MTVGYGFSASGDYSQSKIRADHASVTEQSGIYAGEDGYQIKVRDNTDLKGGIITSSQSAEDKGKNLFQTATLTHSDIQNHSRYEGKSFGIGGSFDLNGGWDGTVTDKQGRPTDRISLAAGYGSDSDSQSSITKSGINTRNIHITDEAGQLARTGRTAKETEARIYTGIDTETADQHSGRLKNSFDKDAVAKEINLQREVTKEFGRNATQAVAAVADKLGNTQSYERYQEARTLLEAELQNTDSEAEKAAFRASLGQVNAYLAENQSRYDTWKEGGIGRSILHGAGRQSAMRRAGMSVRRQ | not soluble |
| MTLHKERRIGRLSVLLLLNEAEESTQVEELERDGWKVCLGKVGSMDAHKVIAAIETASKKSGVIQSEGYRESHALYHATMEALHGVTRGEMLLGSLLRTVGLRFAVLRGNPYESEAEGDWIAVSLYGTIGAPIKGLEHETFGVGINHI | soluble |
| MKKLLSSDRIKAEALRLGFSACGLAPAEAVDETVATAFRQWLADGCQAEMAYMQNYEDKRLDPRLLVEGARTVISVALNYYPAKKLPEGEYQIAWYAYGKDYHDVMKRKLKELFEFIEKEVSFSEETDSTIASTNNIGTYTENYASAPQAPVSQTSASPLQGRIFCDTAPILERYWAWRTGLGWIGKNTHLIIPHAGSCFFLGEIILDREADNYDSPQRNQCGSCTRCLDACPTKALEAPFRLNSERCLSYLTIEYRGELSLNTGKKMGNKIYGCDECLKACPWNRFATPCRTAEFQPSPSLLSMKKDDWHSLSEEQYKTIFKGSAVKRAKYSGLMRNIKIIK | not soluble |
| MGSDKIHHHHHHMNQAMDTKQIAPFTLALPEGEALPLVCDSPHSGTFYPADFGAVVAPERLRGGEDTHVDALWEAVPRVGGTLLAATFPRVYIDPNRMLDDIDPAQLEGPWPTPLAPGEKTRLGYGLIWSNVDAATPIYDRKLTVAEVQRRINRYYRPYHAALTEAVEGAYQRFGAVWHLNLHSMPNNAYERLKIQSPRPLADFVLGDRDGTTCEPGLVDLVERELREKGYTVARNDPYKGVQLIAQIGRPAERRNSLQIEIRRPLYMEEGTRERNEGFATLQRDLTLLTLRIAEYVRRGV | not soluble |
| MGSDKIHHHHHHMALTQITQTVSPQPTPPELRKYDYDLVIVGGGIVGLTLASALKDSGLNILLIEAKVSSAAVAKGQAYAVHLLSALIYQGIGIWDKILPQIAKYRQVRLSDADYPGVVEFETTDLGTPELGYVAEHQALLEPLQEFVQNCPNVTYLCPAEVVSTNYQQNEVVIAVKIADQLNTIRSKLLVAADGSRSPIRQAAGIKTHGWKYWQSCIVAFVKPEKPHNDTAYERFWPSGPFAILPLPGNRCRIVWTAPHDEAKALCALNDEEFLQELSQRFGKQMGKLELLGDRFVFQVQLMQSDRYVLPRLALVGDAAHNCHPVGGQGLNLGIRDVAALAQVIQKAHQAGEDIGNIRVLKRYESWRQKENLAILGFTDMLDRMFSNQFPPLVFVRRLGLWFLQSVPALKTFMLKLMIGLKGKTPELAKR | not soluble |
| MSKGASAPQQQSAFKQLYTELFNNEGDFSKVSSNLKKPLKCYVKESYPHFLVTDGYFFVAPYFTKEAVNEFHAKFPNVNIVDLTDKVIVINNWSLELRRVNSAEVFTSYANLEARLIVHSFKPNLQERLNPTRYPVNLFRDDEFKTTIQHFRHTALQAAINKTVKGDNLVDISKVADAAGKKGKVDAGIVKASASKGDEFSDFSFKEGNTATLKIADIFVQEKGKDALNKAADHTDGAKVKGGAKGKGKAAAKAAKGKKLSAKKGDSSAADVRKSVDKIVKYTPSKGSRKDTPQKSQAPAAGKSSAKKGGKKAVPSAPSPSGKKSALTTDKMTMAQFVKYLDWHEKKKGGKVSSGGKVLGKRSAGKASATSGKASKASKKTAAKK | soluble |
| MAHHHHHHMLSNVPEEPEKLVREVSDLAEAFITNLKRGKLAAARSGGESLSTAAAVEMADVMSTIVRLFQNAEKDLHSTTIQLLKAGYPAAEVASMQVSRLLILVARTGDAMLRAQFATLFLMNVTRRVLSIVRESAANSKATDAELEDEAKTILNDLASDDEAAVVETPADTSSSSSNRCGMDDSTDPASPSLSAKGMKPALKRDTLVSQPLSRRGLSVRFAGTSTSSEEASGGHMRQLQQHSTSVASDFGGPLLQHTGSIVATEIPGRQLLKRAPSRCEQVLEGGGGEIEFPVRMEIFYQDALDAIDEFKRELEGMTEELCRRSTRQLHSSDTIITLGCSHTIRRYLLEAAQAGHHFKVFILEGAPLPAQATQEFAEALCSRGITAQLLPDSSAYVVMSMCTKVLVGAENVLANGGMLASIGTHVLCAAARHFAVPVLVATTTLKMSPYYPSDQLCTRLVRIARSGAQEMPWSTYGSPEDVWPSPFGVSVSDSGRRLTIHAPVTEYVPPELITLFLTNDSELLPSQIHRIVRANYSDAD | not soluble |

Source: the DeepSol protein solubility set
